Here are results for 3 molecules from paper PMC3718980 (The Journal of Cell Biology, 2013).

Where a chain is given by its changes, count along the chain named.

Assay [1] has as its target microtubules (polymerized with GMPCPP, in taxol). The assay is described as follows: co-sedimentation.
The target of assay [2] is T1, GST-CERMAD of wild-type Moesin (residues 483–578) (Drosophila melanogaster, UniProt P46150 483-578).
T1 sequence (looked up): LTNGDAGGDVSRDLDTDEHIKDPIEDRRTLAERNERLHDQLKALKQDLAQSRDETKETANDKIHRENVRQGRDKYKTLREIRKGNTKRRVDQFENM
The assay is described as follows: pull-down.

Assay [3] deals with microtubules (polymerized with GMPCPP, in taxol). As to the kind of experiment: co-sedimentation. This is another data set of the same source.

As usually defined, the Kd is the free concentration of one partner at which half of the binding sites on the other are occupied at equilibrium, for simple one-to-one binding. A high value points to weaker binding. For “Moesin1–559 (Drosophila Moesin with the C-terminal 19 amino acids deleted) (from UniProt P46150 1-559) (domain or fragment)”, in assay [1], the Kd came to 1.9 µM.

B1: FERM domain of Drosophila Moesin, wild type (domain or fragment, Drosophila melanogaster, UniProt P46150 1-296, looked up)
chain: MSPKALNVRVTTMDAELEFAIQSTTTGKQLFDQVVKTIGLREVWFFGLQYTDSKGDSTWIKLYKKVMNQDVKKENPLQFRFRAKFYPEDVAEELIQDITLRLFYLQVKNAILTDEIYCPPETSVLLASYAVQARHGDHNKTTHTAGFLANDRLLPQRVIDQHKMSKDEWEQSIMTWWQEHRSMLREDAMMEYLKIAQDLEMYGVNYFEIRNKKGTDLWLGVDALGLNIYEQDDRLTPKIGFPWSEIRNISFSEKKFIIKPIDKKAPDFMFFAPRVRINKRILALCMGNHELYMRRR
In general, stoichiometry N refers to a count of units in the complex or per binding partner. For the molecule B1, in assay [2], the “stoichiometry N” value came out at 1.

B2: FERM-K212,213M of Drosophila Moesin (domain or fragment, Drosophila melanogaster, UniProt P46150 1-296, looked up)
chain: B1 chain with K212M, K213M
Turning to B2, in assay [2], the “stoichiometry N” value turned out to be 1. Moreover, the fold reduction in the apparent Kd against FERM wild type in assay [3] came out at 3.6 fold.
